According to patent US20210079107A1 (Novartis, published 2021):
Where “and” joins values, the source holds several entries; their conditions need not be identical. Identical values can stand only once.

B1: HCD122 (wild-type IgG1 version of CFZ533) (antibody)
heavy: not shown
light: DIVMTQSPLSLTVTPGEPASISCRSSQSLLYSNGYNYLDWYLQKPGQSPQVLISLGSNRASGVPDRFSGSGSGTDFTLKISRVEAEDVGVYYCMQARQTPFTFGPGTKVDIRRTVAAPSVFIFPPSDEQLKSGTASVVCLLNNFYPREAKVQWKVDNALQSGNSQESVTEQDSKDSTYSLSSTLTLSKADYEKHKVYACEVTHQGLSSPVTKSFNRGEC
notes: it calls it the parental antibody and the wild-type IgG1 version of CFZ533 (N297A IgG1); It is built here as the CFZ533 chains with Asn in place of the Ala of N297A; 297 is a constant-region number; also called parental antibody
B2: CFZ533 (antibody, human IgG1, kappa, N297A)
heavy: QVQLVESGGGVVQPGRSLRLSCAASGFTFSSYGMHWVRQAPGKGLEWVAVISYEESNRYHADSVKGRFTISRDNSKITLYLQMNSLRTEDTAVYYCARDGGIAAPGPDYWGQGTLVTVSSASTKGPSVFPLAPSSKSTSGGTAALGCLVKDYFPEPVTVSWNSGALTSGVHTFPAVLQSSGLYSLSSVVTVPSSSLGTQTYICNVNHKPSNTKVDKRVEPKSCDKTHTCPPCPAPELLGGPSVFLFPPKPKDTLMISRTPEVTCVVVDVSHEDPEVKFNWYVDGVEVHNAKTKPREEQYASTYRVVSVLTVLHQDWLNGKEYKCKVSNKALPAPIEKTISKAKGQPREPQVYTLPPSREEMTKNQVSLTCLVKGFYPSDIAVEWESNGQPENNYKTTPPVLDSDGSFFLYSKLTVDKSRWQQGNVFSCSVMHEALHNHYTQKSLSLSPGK
light: B1 light
notes: In the receptor occupancy and internalisation assays it was labelled with AlexaFluor 488; also called mAb1; iscalimab

Tests used:
[1] = biological target: T1, human FcγRIIIA 158F extracellular domain (human, UniProt P08637 17-199, site directed biotinylated with BirA (Avi tag)); test: SPR (T100), biotinylated receptor on streptavidin chip, equilibrium binding, 1:1 model
T1 construct: range 17-199; not shown: 4-amino acid purification tag (4APP; Novartis)
T1 sequence (P08637 other isoform, or with tags, fused parts or gaps): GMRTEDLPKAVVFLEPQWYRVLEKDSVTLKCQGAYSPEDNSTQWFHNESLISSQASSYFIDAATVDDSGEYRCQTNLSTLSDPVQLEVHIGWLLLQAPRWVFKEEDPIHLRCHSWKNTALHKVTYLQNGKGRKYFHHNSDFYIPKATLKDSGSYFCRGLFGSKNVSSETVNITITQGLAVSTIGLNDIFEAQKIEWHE
From the text: (§1) Extracellular domains of human FcγRIIIA tagged with a 4-amino acid purification tag (4APP; Novartis) and an Avi biotinylation tag ([…]; Avidity) were synthesized by Geneart: human FcγRIIIA (CD16a) 158V (Uniprot: P08637, 17-199), human FcγRIIIA 158F (Uniprot: P08637, 17-199), expressed in HEK293 cells and purified with anti-4APP affinity chromatography. Receptors were site directed biotinylated with BirA (Avidity), bound to streptavidin sensor chips (General Electric), and the equilibrium-binding levels of the different Abs were analyzed by surface plasmon resonance (T100, General Electric) as described (Warncke et al. 2012). Equilibrium dissociation constants (KD) were calculated by a 1:1 model.

[2] = biological target: T2, recombinant human CD40 (human, UniProt P25942 21-193); test: SPR (Biacore T100), antibody captured on Protein A, CD40 as analyte, 25 °C, 1:1 model
T2 construct: Soluble analyte in SPR; also called CD40 antigen
T2 sequence (P25942 21-193 limits assumed): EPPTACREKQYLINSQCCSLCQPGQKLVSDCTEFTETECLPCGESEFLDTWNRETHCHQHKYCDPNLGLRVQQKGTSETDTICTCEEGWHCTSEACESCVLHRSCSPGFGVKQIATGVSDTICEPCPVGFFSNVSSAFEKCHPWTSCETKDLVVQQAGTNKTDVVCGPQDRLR
From the text: A typical binding analysis cycle consisted of three steps: (i) capture of the antibody via ProteinA immobilized on the chip surface, (ii) binding of CD40 antigen to the captured anti-CD40 antibody, and (iii) regeneration of the ProteinA surface. To determine the kinetic rate constants of the antigen-antibody binding interactions, binding data were processed, double referenced with responses from blank injections. The binding curves were fitted locally using the 1:1 interaction model of the Biacore T100 Evaluation software to determine kinetic rate constants. The value for the equilibrium dissociation constant (KD) was calculated as the ratio of the rate constants kd/ka. All binding measurements were performed in two independent experiments.

[3] = biological target: T3, rhesus monkey CD40 on CD20+ B cells (rhesus, UniProt F6SNI1 21-278); test: cell-based or functional assay
[4] = biological target: T4, cynomolgus monkey CD40 on CD20+ B cells (cynomolgus, UniProt G7PG38 21-278); test: cell-based or functional assay
[5] = biological target: T5, human CD40 on cells (CD20+ B cells of whole blood/PBMCs, tonsil B cells, moDCs, RI-1 B cell line) (human, UniProt P25942 21-277); test: cell-based or functional assay
T5 sequence (P25942 21-277 limits assumed): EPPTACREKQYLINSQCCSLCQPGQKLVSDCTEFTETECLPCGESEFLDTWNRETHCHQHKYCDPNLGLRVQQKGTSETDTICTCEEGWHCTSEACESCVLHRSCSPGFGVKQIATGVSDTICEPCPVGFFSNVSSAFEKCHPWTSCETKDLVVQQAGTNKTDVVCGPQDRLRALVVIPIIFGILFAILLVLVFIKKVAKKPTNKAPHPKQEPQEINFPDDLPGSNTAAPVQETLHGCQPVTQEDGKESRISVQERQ

[6] = biological target: T5, human CD40 on cells (CD20+ B cells of …); test: cell-based or functional assay; remark: listed apart in the source
[7] = biological target: T4, cynomolgus monkey CD40 on CD20+ B cells; test: flow cytometry, CD40 occupancy by CFZ533 (MFI EC50 on CD20+ cells), cynomolgus, n = 4
[8] = biological target: T1, human FcγRIIIA 158F extracellular domain; test: SPR, biotinylated receptor on streptavidin chip, equilibrium binding
From the text: as §1

[9] = biological target: T6, human FcγRIIIA (CD16a) 158V extracellular domain (human, UniProt P08637 17-199, site directed biotinylated with BirA (Avi tag)); test: as above
T6 construct: range 17-199; 158 is the usual mature numbering of the V/F allotype; also called Human FcγRIIIA 158V; not shown: 4-amino acid purification tag (4APP; Novartis)
T6 sequence (P08637 other isoform, or with tags, fused parts or gaps): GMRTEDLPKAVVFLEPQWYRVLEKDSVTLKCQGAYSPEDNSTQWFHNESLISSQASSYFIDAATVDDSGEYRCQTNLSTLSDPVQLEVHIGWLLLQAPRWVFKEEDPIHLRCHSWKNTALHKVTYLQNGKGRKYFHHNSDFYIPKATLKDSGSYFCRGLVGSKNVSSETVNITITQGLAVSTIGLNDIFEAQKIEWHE
From the text: as §1

[10] = biological target: T3, rhesus monkey CD40 on CD20+ B cells; test: flow cytometry, CD40 occupancy by CFZ533 (MFI EC50 on CD20+ cells), rhesus, n = 6
[11] = biological target: T5, human CD40 on cells (CD20+ B cells of …); test: flow cytometry, CD40 occupancy by CFZ533 (MFI EC50 on CD20+ cells), human, n = 4
[12] = biological target: T5, human CD40 on cells (CD20+ B cells of …); test: flow cytometry, CD40 occupancy by CFZ533 (MFI EC50 on CD20+ cells), human, n = 4; human CD20+ cells, n = 4
[13] = biological target: T5, human CD40 on cells (CD20+ B cells of …); test: cell-based or functional assay; remark: listed apart in the source

Binder | Ka [1] [M⁻¹] | Kd [2] [nM] | koff [2] [s⁻¹] | kon [2] [M⁻¹ s⁻¹] | Inhibition of rCD154-induced proliferation (IC50 PBMCs) [3] [µg/mL] | Inhibition of rCD154-induced proliferation (IC50 PBMCs) [4] [µg/mL] | Inhibition of rCD154-induced proliferation (IC50 PBMCs) [5] [µg/mL] | IC50 (read off the curve): rCD154-induced CD69 expression on CD20pos B cells, human whole blood [6] [µg/mL] | EC50 [7] [µg/mL] | binding result [8] | binding result [9] | EC50 [10] [µg/mL] | EC50 [11] [µg/mL] | EC50 [12] [nM] | IC50, rCD154-induced TNF production by primary monocyte-derived dendritic cells (moDCs) [13] | IC50, rCD154-induced proliferation of human whole blood cultures [13] | IC50, rCD154-induced proliferation of purified tonsillar B cells [13]
B1 | 699000 | 0.467 | 0.000126 | 284000 |  |  |  |  |  |  |  |  |  |  |  |  | 
B2 |  | 0.305 | 9.3e-05 | 313000 | 0.026 | 0.01 | 0.017 | ~0.1 | 0.2 | no binding | no binding | 0.22 | 0.22 | 1.49 | 0.04 µg/ml and 0.27 nM | 0.024 µg/ml and 0.16 nM | 0.47 nM and 0.071 µg/ml
